{"source": "patent US20240400717A1", "about": "“Antibody Binding to CHI3L1 for Treating Cancer” (National Cheng Kung University, priority 2021, published 2024)", "molecules": {"B1": {"name": "R4-54: fully human anti-CHI3L1 IgG1 mAb, Table 1 No. 34; heavy chain SEQ ID NO: 33, light chain SEQ ID NO: 34 (antibody, listed as Homo sapiens)", "VH": "QVQLVESGGGVVQPGRSLRLSCAASGFTFSSYGMHWVRQAPGKGLEWVAVISYDGSDKDYADSVKGRFTISRDNSKNTLFLQMNSLRAEDTAVYYCARDDYDSTYYFDNWGQGTTVTVSS", "light": "SYELTQPPSVSVSPGQTASITCSGDILADQYASWYQQKPGQSPVLVIYHDTKRPSGVPERFSGSTSGNTATLTISGTQAMDEAAYYCQAWDINTAWVFGGGTQLTVLGQPKAAPSVTLFPPSSEELQANKATLVCLISDFYPGAVTVAWKADSSPVKAGVETTTPSKQSNNKYAASSYLSLTPEQWKSHRSYSCQVTHEGSTVEKTVAPTECS"}, "B2": {"name": "R4-4: fully human anti-CHI3L1 IgG1 mAb, Table 1 No. 9; heavy chain SEQ ID NO: 9, light chain SEQ ID NO: 10 (antibody, listed as Homo sapiens)", "VH": "EVQLLESGGGLLQPGGSLRLSCAASGLTFRNYAMTWVRQAPGKGLEWVSTISGNGDETFYADSVKGHFTISRDNSKDTVYLQMNSLRAEDTAVYYCAKGGHYSFFDSWGQGSPVTVSS", "light": "NFMLTQPHSVSESPGKTVTISCTRSSGSIASNYVQWYQQRPGSSPTTVIYEDNQRPSGVPDRFSGSIDSSSNSASLTISGLKTEDEADYYCQSYDSSNYVFGTGTKVTVLGQPKANPTVTLFPPSSEELQANKATLVCLISDFYPGAVTVAWKADGSPVKAGVETTKPSKQSNNKYAASSYLSLTPEQWKSHRSYSCQVTHEGSTVEKTVAPAECS"}}, "key": {"[1]": {"system": "MiaPaCa-2 cells", "test": "MiaPaCa-2 subcutaneous xenograft NOD-SCID mice, efficacy and toxicity", "format": "in vivo", "conditions": "for histology of liver, lung and kidney / mice body weight / serum level of GOT, GPT, BUN, albumin and creatinine: 5 mg/kg i.v.; for growth of MiaPaCa-2 subcutaneous xenografts: 5 mg/kg i.v. day 7, 14, 21, sacrificed day 28; for mice body weight / serum level of GOT, GPT, BUN, albumin and creatinine: vs IgG control", "protocol": "Next, we examined whether our mAb clones R4-4 and R4-54 exert any toxicity in vivo. We performed a xenograft model by subcutaneously implanting MiaPaCa-2 cells to NOD-SCID mice. The mice were i.v. injected with IgG isotype, mAb clone R4-4, or clone R4-54 (5 mg/kg) once a week starting from day 7 to day 21, that is, day 7, day 14, and day 21, and mice were sacrificed on day 28. […] To evaluate the potential safety of our developed mAbs, we examined body weight, serum biochemical markers and histology sections of three major organs of tumor-bearing mice. […] Scale bar 100 μm. P values were determined by one-way ANOVA. * P<0.05, ** P<0.01, *** P<0.001, **** P<0.0001."}, "[2]": {"system": "H460 cells", "test": "H460-bearing hHSC-HIS mouse model", "format": "in vivo, hHSC reconstituted ASID mice", "from_the_text": "(§1) We used the advanced severe immunodeficiency (ASID) mice those were implanted with human […] hematopoietic stem cells (HSCs). MiaPaCa-2 and H460 cells were then subcutaneously injected into hHSC reconstituted ASID mice to evaluate the anti-tumor effects of CHI3L1 mAb clone R4-54 on lung and pancreatic cell lines in vivo. […] Tumor and peripheral blood were also harvest for further immune cell population examinations. […] In addition, peripheral blood samples of two tumor-bearing hHSC-HIS mice models were collected for analysis of immune cell populations. […] Data was presented as means±S.D. P values refer to two-tailed Student's t test. * P<0.05, ** P<0.01, *** P<0.001."}, "[3]": {"system": "MiaPaCa-2 cells", "test": "MiaPaCa-2-bearing hHSC-HIS mouse model", "format": "in vivo, hHSC reconstituted ASID mice", "from_the_text": "as §1"}, "[4]": {"system": "KPPC-luc cells", "test": "KPPC-luc orthotopic C57BL/6J mice model, mono-treatment", "format": "in vivo", "protocol": "(§2) Thus, we established orthotopic animal models by directly injecting murine pancreatic cancer KPPC-luc cells (5×10^6) into pancreas of immunocompetent (C57BL/6J) mice. All mice were divided into two groups and treated with IgG isotype antibody as control, or mAb clone R4-4 (5 mg/kg) by intravenous (i.v.) injection via tail-vein at indicated time points (Day 3, Day 7, Day 10, and Day 14). Mice were sacrificed to verify tumor information on day 28. […] Data was presented as means±S.D. P values refer to two-tailed Student's t test. * P<0.05, ** P<0.01."}, "[5]": {"target": "mouse CHI3L1 antigen (Mus musculus, UniProt Q61362)", "sequence (Q61362 30-389)": "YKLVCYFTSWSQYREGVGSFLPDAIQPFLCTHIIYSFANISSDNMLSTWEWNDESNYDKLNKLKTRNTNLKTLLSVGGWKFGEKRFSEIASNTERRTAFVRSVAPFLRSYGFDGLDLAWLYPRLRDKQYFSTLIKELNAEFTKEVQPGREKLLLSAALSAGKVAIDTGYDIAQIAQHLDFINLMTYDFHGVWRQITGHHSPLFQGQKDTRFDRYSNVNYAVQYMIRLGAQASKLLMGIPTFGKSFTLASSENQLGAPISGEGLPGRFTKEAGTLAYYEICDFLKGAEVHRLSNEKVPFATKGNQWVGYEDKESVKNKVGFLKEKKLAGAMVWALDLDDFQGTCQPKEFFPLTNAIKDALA", "test": "Direct ELISA of phage clones, cross-reaction with mouse CHI3L1", "format": "binding", "conditions": "FIG. 1C"}, "[6]": {"test": "Mouse muscle fiber area analysis (cachexia) in KPPC-luc orthotopic model", "format": "in vivo, C57BL/6J mice", "protocol": "Since pancreatic patients often suffer from cachexia, the cancer-related muscle loss disorder (Henderson et al. 2018; Yoo et al. 2021), we further performed the mouse muscle fiber area analysis in IgG and R4-4 (10 mg/kg) groups. […] The value of the cross-sectional cutoff area was set to 1800, representing severe muscle loss (FIG. 15D)."}, "[7]": {"system": "KPPC-luc cells", "test": "KPPC-luc orthotopic C57BL/6J mice model, mAb and chemotherapy combination", "conditions": "for tumor weight: day 29"}, "[8]": {"target": "mouse rCHI3L1 (Mus musculus, UniProt Q61362)", "sequence (Q61362 30-389)": "as above", "test": "ELISA binding to mouse rCHI3L1", "conditions": "FIG. 10B", "protocol": "FIGS. 10A to 10B show binding curves of ELISA assay indicated the binding of R4-4 (circle), R4-54 (square), 293R3-2 (triangle), and 293R3-4 (reverse triangle) to (FIG. 10A) human rCHI3L1 and (FIG. 10B) mouse rCHI3L1.\nas §2"}, "[9]": {"conditions": "immunohistochemical staining, CD86 and CD163"}}}
{"molecule": "B1", "values": [{"measurement": "histology of liver, lung and kidney", "setting": "[1]", "result": "no significant adverse effects"}, {"measurement": "growth of MiaPaCa-2 subcutaneous xenografts", "setting": "[1]", "result": "significantly delayed the growth"}, {"measurement": "mice body weight", "setting": "[1]", "result": "no significant change in mice body weight"}, {"measurement": "serum level of GOT, GPT, BUN, albumin and creatinine", "setting": "[1]", "result": "No obvious difference"}, {"measurement": "growth of subcutaneous xenografts", "setting": "[2]; 5 mg/kg i.v. every five days from day 6, day 27", "result": "significantly delayed the growth"}, {"measurement": "M2-like TAM and Treg populations in tumor-infiltrating immune cells", "setting": "[2]; flow cytometry", "result": "M2-like TAM and Treg populations were decreased"}, {"measurement": "percentages of M1 macrophages and CD8+ T cells in tumor-infiltrating immune cells", "setting": "[2]; flow cytometry", "result": "increased the percentages of M1 macrophages and CD8+ T cells"}, {"measurement": "intratumoral M1 to M2 ratio and CD8 T cells", "setting": "[2]; [9]", "result": "M1 to M2 ratio and CD8 T cells were both increased"}, {"measurement": "peripheral blood CD8+ T cells and Tregs", "setting": "[2]; peripheral blood", "result": "increased CD8+ T cells and decreased Tregs"}, {"measurement": "growth of subcutaneous xenografts", "setting": "[3]; 5 mg/kg i.v. every five days from day 14, day 32", "result": "significantly delayed the growth"}, {"measurement": "M2-like TAM and Treg populations in tumor-infiltrating immune cells", "setting": "[3]; flow cytometry", "result": "M2-like TAM and Treg populations were decreased"}, {"measurement": "percentages of M1 macrophages and CD8+ T cells in tumor-infiltrating immune cells", "setting": "[3]; flow cytometry", "result": "increased the percentages of M1 macrophages and CD8+ T cells"}, {"measurement": "intratumoral M1 to M2 ratio and CD8 T cells", "setting": "[3]; [9]", "result": "M1 to M2 ratio and CD8 T cells were both increased"}, {"measurement": "peripheral blood CD8+ T cells and Tregs", "setting": "[3]; peripheral blood", "result": "increased CD8+ T cells and decreased Tregs"}]}
{"molecule": "B2", "values": [{"measurement": "tumor weight", "setting": "[4]; 5 mg/kg i.v. Day 3, 7, 10, 14, day 28, vs IgG", "result": "significant reduction of tumor weight"}, {"measurement": "body weight", "setting": "[4]; 5 mg/kg i.v., vs IgG", "result": "without apparently body weight change"}, {"measurement": "M1/M2 ratio", "setting": "[4]; flow cytometry, 5 mg/kg i.v.", "result": "increased the M1/M2 ratio"}, {"measurement": "tumor infiltrating M2-like TAMs (CD206+)", "setting": "[4]; flow cytometry, 5 mg/kg i.v.", "result": "decreased"}, {"measurement": "tumor infiltrating Treg (CD45+, Foxp3+) populations", "setting": "[4]; flow cytometry, 5 mg/kg i.v.", "result": "decreased"}, {"measurement": "histology of liver, lung and kidney", "setting": "[1]", "result": "no significant adverse effects"}, {"measurement": "growth of MiaPaCa-2 subcutaneous xenografts", "setting": "[1]", "result": "significantly delayed the growth"}, {"measurement": "mice body weight", "setting": "[1]", "result": "no significant change in mice body weight"}, {"measurement": "serum level of GOT, GPT, BUN, albumin and creatinine", "setting": "[1]", "result": "No obvious difference"}, {"measurement": "recognition of mouse CHI3L1 by phage clones", "setting": "[5]", "result": "cross-react with mouse CHI3L1"}, {"measurement": "muscle fiber area", "setting": "[6]; R4-4 10 mg/kg compared to IgG", "result": "larger muscle fiber area"}, {"measurement": "muscle fibers below the cutoff value", "setting": "[6]; R4-4 10 mg/kg, cross-sectional cutoff area 1800", "result": 30.4, "unit": "%"}, {"measurement": "tumor weight", "setting": "[7]; GEM 25 mg/kg, R4-4 10 mg/kg, Abraxane 2.5 mg/kg, i.p. day 14, 20, 25", "result": 2.61, "unit": "g"}, {"measurement": "tumor weight", "setting": "[7]; R4-4 15 mg/kg i.p. day 14, 20, 25", "result": 1.74}, {"measurement": "Treg (CD4+, CD25+, Foxp3+)", "setting": "[7]; R4-4 15 mg/kg, flow cytometry", "result": "significant decrease of Treg"}, {"measurement": "angiogenesis level indicated by CD31", "setting": "[7]; all treated groups (R4-4 10 or 15 mg/kg)", "result": "largely reduced"}, {"measurement": "tumor-infiltrating M1-like TAMs (CD86+, CD11b+) and M1/M2 ratio", "setting": "[7]; flow cytometry", "result": "increased M1-like TAMs"}, {"measurement": "tumor-infiltrating M2-like TAMs (CD206+, CD11b+)", "setting": "[7]; flow cytometry", "result": "decreased M2-like TAMs"}, {"measurement": "cross-reaction with murine CHI3L1", "setting": "[8]", "result": "the only one that could cross-react with murine CHI3L1"}]}
